Experimental data taken from the supplement of paper PMC10567573.

B1: KRT18 (parent)
chain: RAQYDELARKNREELDKYWSQQIE

Variants of: B1
Assay: protein stability index of a GFP-peptide fusion (GPS, HEK-293T) (PSI 1-6); higher = more stable
Details: c terminus: a fixed tail appended
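Further: lentivirally expressed fusions sorted by FACS into six bins by GFP to DsRed ratio, PSI derived from sequencing read proportions per bin multiplied by bin number.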

Protein stability index: each site, then its substitutions
Y4: F 3.52, T 3.91, S 3.74, K 3.46, D 3.23, V 4, M 3.18, G 3.04, N 3.68, Q 3.93, R 4, L 2.25, C 3.44, A 3.84, H 3.45, E 3.57, P 3.67, I 3.47, W 2.48
E6: K 3.48, G 3.02, L 2.85, Y 3.25, T 3.36, A 3.3, W 2.42, Q 3.51, V 3.32, P 4.07, M 2.99, C 2.3, H 3.41, R 3.17, I 3.05, N 3.66, D 3.27, F 3.15, S 3.24
A8: H 2.17, F 3.41, D 4.2, V 2.6, Q 3.75, W 1.31, R 3.51, P 4.42, N 3.54, G 3.72, L 2.34, C 2.75, S 3.5, K 3.85, T 2.33, M 2.66, E 4.57, I 3.17
E14: H 3.29, W 3.89, G 3.83, Q 3.85, R 2.87, T 3.56, F 2.5, L 2.97, D 3.94, P 3.81, S 3.5, I 2.62, C 3.42, N 3.04, V 3.62, K 2.94, M 2.92, A 3.82, Y 3.07
L7: D 3, V 3.41, F 1.27, E 2.75, H 3.62, W 2.13, C 3.42, T 3.68, P 4.08, R 3.89, M 2.38, Q 3.78, S 3.84, Y 3.06, A 3.7, N 4.22, K 3.93, G 3.19, I 3.41
R9: H 3.4, G 4.53, D 4.4, Y 3.64, C 3.6, W 2.62, E 3.69, M 3.17, I 3.34, S 3.66, F 3.88, V 2.86, P 4.28, T 3.53, K 3.52, L 3.27, Q 3.16, A 3.92, N 3.46
K10: A 2.97, E 3.33, F 3.34, V 3.15, S 3.23, C 3.02, D 4.73, Q 3.14, L 3.73, P 3.83, Y 4.15, M 4.04, I 2.79, R 3.03, H 4.16, G 4.05, N 3.79, W 2.81, T 3.5
N11: M 2.81, F 1.94, D 4.23, C 2.81, W 2.63, P 4.02, I 2.37, Q 3.87, G 3.71, A 4, K 3.96, S 4.15, H 3.75, L 2.66, Y 2.27, R 3.39, V 2.75, E 4.54, T 2.8
A2: S 3.25, Y 2.72, R 3.24, T 2.52, V 3.11, W 3.13
R12: F 4.13, H 3.64, Y 4.05, L 4.56, N 3.94, C 3.98, I 4.34, M 3.72, Q 4.12, A 4.25, V 4.34, K 4.37, E 4.27, W 4.56, P 4.08, S 4.56, D 4.17, T 4.19, G 3.32
D16: L 3.12, E 3.39, R 3.08, I 2.15, M 2.74, G 2.03, Y 2.72, T 2.92, C 2.4, H 3.35, N 1.42, F 2.1, P 3.63, Q 2.69, S 2.36, A 2.56, W 2.21
L15: H 4.25, D 4.9, R 4.22, C 3.18, P 4.6, E 3.98, A 4.37, M 4.06, S 4.19, K 3.87, W 1.95, T 4.1, Q 4.71, I 3.94, Y 3.3, F 3.22, G 4.07, V 3.41, N 3.57
K17: C 3.28, W 3.65, D 4.21, R 2.56, P 4.25, H 3.14, Y 3.42, E 3.94, I 3.16, F 3.62, G 3.57, Q 2.96, M 3.51, V 3.64, S 3.67, A 2.7, N 3.02, T 3.21, L 3.14
D5: E 2.86, G 3.09, K 2.84, M 2.75, H 3.29, A 2.74, I 2.98, F 2.83, Y 3.28, S 2.79, N 3.17, V 3.57, T 3.57, R 2.79, L 2.33, P 3.73, Q 3.38, C 3.33
Q3: S 2.21, K 3.19, L 2.55, A 2.68, E 3.19, H 2.54, T 2.89, V 2.31, P 2.94, W 2.07, C 2.51, N 4.45, M 2.52, F 2.38, D 3.54, I 2.44, Y 2.56, G 3.21, R 3.27
Y18: M 4.36, S 4.51, I 3.97, A 4.62, R 4.09, E 5.17, H 4.06, W 3.62, F 3.5, K 4.24, L 4.6, T 4.57, V 4.33, P 4.34, G 4.27, N 4.92, D 5.12, C 3.95, Q 4.77
S20: E 4.23, C 2.63, G 3.97, K 1.22, H 1.59, I 2.31, D 4.29, A 3.15, F 3.04
W19: M 5.01, F 4.19, D 4.56, L 4.42, P 5.03, Y 4.58, C 4.91, I 4.5, A 4.73, S 4.25, H 4.85, K 4.41, R 4.71, Q 5.13, E 5.28, V 4.68, G 5.07, N 4.54, T 4.97
E13: C 2.81, R 3.31, V 2.07, Q 2.91, L 3.07, N 3.58, P 2.99, A 3.41, I 2.05, F 3.1, M 2.82, S 3.96, D 3.54, K 3.2, Y 3.05, T 3.82, G 3.92, W 2.65, H 3.54
